Measurements taken from IntAct's records for PubMed 22187462.

B1: Catenin beta-1 (Homo sapiens), P35222 (parent)
chain: MATQADLMELDMAMEPDRKAAVSHWQQQSYLDSGIHSGATTTAPSLSGKGNPEEEDVDTSQVLYEWEQGFSQSFTQEQVADIDGQYAMTRAQRVRAAMFPETLDEGMQIPSTQFDAAHPTNVQRLAEPSQMLKHAVVNLINYQDDAELATRAIPELTKLLNDEDQVVVNKAAVMVHQLSKKEASRHAIMRSPQMVSAIVRTMQNTNDVETARCTAGTLHNLSHHREGLLAIFKSGGIPALVKMLGSPVDSVLFYAITTLHNLLLHQEGAKMAVRLAGGLQKMVALLNKTNVKFLAITTDCLQILAYGNQESKLIILASGGPQALVNIMRTYTYEKLLWTTSRVLKVLSVCSSNKPAIVEAGGMQALGLHLTDPSQRLVQNCLWTLRNLSDAATKQEGMEGLLGTLVQLLGSDDINVVTCAAGILSNLTCNNYKNKMMVCQVGGIEALVRTVLRAGDREDITEPAICALRHLTSRHQEAEMAQNAVRLHYGLPVVVKLLHPPSHWPLIKATVGLIRNLALCPANHAPLREQGAIPRLVQLLVRAHQDTQRRTSMGGTQQQFVEGVRMEEIVEGCTGALHILARDVHNRIVIRGLNTIPLFVQLLYSPIENIQRVAAGVLCELAQDKEAAEAIEAEGATAPLTELLHSRNEGVATYAAAVLFRMSEDKPQDYKKRLSVELTSSLFRTEPMAWNETADLGLDIGAQGEPLGYRQDDPSYRSFHSGGYGQDALGMDPMMEHEMGGHHPGADYPVDGLPDLGHAQDLMDGLPPGDSNQLAWFDTDL

Variants of: B1
Conditions: with andr_human AR

Variant	effect of a mutation on the interaction
Y306A	disrupting interaction strength
Y306A;K345A;W383A	disrupting interaction strength
K345A	disrupting interaction strength
W383A	disrupting interaction strength

Variants of: B1
Conditions: with NR5A2, O00482-1
Chain of NR5A2, O00482-1 (O00482 whole entry): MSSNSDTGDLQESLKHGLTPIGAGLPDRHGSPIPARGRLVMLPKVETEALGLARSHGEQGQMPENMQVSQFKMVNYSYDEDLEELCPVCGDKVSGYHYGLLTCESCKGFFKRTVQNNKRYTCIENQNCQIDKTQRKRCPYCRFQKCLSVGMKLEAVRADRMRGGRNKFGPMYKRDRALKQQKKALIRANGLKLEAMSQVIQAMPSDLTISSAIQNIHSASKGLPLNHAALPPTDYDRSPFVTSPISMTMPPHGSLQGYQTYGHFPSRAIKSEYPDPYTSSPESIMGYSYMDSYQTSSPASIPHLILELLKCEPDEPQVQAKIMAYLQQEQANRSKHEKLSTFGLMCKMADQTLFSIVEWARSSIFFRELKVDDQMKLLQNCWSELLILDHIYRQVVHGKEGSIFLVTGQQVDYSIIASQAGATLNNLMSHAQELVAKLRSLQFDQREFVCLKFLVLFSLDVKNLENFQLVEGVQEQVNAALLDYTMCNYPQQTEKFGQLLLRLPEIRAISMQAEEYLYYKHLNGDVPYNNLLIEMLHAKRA

Variant	effect of a mutation on the interaction
Y306A;K345A;W383A	disrupting interaction strength
